Key:
[1] = biological target: T1, Multiple peptide resistance factor (MprF) from Pseudomonas aeruginosa, full length (Pseudomonas aeruginosa PAO1); assay: cryo-EM structure; PaMprF in SaposinA-lipid nanoparticles (POPC:POPG 7:3 mol/mol), separated by SEC, mixed with a 1.2x molar excess of Sb29; conditions: both partners purified
T1 construct: MprF of Pseudomonas aeruginosa, gene cloned from PAO1 genomic DNA into p7XC3H; full length, monomer of 96 kDa; The monomeric SEC fraction was pooled for downstream experiments; also called PaMprF; WT PaMprF; source: E. coli C41, purified (Ni Sepharose, SEC); reconstituted into SaposinA-lipid nanoparticles for cryo-EM
T1 chain: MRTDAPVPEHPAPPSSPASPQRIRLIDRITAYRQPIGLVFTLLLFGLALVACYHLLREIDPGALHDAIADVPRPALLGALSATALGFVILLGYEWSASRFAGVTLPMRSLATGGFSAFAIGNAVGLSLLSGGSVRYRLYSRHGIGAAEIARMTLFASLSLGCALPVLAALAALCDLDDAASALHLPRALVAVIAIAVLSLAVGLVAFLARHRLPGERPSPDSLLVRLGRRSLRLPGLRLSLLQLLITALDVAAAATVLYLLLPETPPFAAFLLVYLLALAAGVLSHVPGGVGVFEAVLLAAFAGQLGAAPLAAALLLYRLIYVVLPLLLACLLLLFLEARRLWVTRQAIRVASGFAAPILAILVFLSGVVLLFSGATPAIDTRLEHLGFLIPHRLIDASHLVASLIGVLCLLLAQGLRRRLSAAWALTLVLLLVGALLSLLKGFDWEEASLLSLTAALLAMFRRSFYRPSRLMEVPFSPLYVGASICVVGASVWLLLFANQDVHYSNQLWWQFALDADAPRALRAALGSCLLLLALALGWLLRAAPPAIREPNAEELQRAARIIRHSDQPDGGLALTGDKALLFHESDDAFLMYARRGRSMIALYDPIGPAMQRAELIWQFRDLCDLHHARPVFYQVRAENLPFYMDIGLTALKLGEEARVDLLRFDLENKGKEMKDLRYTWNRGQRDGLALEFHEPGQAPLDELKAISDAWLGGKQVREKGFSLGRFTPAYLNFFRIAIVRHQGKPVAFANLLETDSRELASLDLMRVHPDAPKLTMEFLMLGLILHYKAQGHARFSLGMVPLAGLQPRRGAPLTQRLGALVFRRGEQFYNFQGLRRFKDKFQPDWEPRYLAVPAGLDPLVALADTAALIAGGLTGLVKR

[2] = biological target: T2, Truncated PaMprF construct of residues 1 to 545 (TM region) (Pseudomonas aeruginosa PAO1); assay: pull-down; truncated PaMprF construct of residues 1 to 545 with sybodies; who was held is not told
T2 construct: MprF of Pseudomonas aeruginosa (PAO1), residues 1 to 545, representing the transmembrane region; also called truncated form of PaMprF representing the TM region
T2 chain: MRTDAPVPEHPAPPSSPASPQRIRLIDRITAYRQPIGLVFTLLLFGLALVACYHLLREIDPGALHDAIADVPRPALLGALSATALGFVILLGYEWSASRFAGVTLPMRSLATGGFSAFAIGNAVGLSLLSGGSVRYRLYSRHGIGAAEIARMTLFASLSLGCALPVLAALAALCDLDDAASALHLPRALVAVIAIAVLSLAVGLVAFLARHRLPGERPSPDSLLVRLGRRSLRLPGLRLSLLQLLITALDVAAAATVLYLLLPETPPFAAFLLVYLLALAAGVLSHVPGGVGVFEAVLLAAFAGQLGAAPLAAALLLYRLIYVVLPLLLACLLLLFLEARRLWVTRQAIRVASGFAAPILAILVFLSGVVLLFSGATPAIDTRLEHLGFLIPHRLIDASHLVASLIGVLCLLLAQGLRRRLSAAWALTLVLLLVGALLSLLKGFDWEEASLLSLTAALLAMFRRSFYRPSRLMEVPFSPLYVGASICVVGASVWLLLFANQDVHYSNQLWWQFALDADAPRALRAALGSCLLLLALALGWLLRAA

B1: Sybody 29 (synthetic nanobody against PaMprF) (VHH)
VHH: GVQLVESGGGLVQAGGSLRLSCAASGFPVSSAWMAWYRQAPGKEREWVAAIFSAGQKTRYADSVKGRFTISRDNAKNTVYLQMNSLKPEDTAVYYCNVKDTGHWWDIYDYWGQGTQVTVSA
notes: synthetic nanobody from the loop sybody sublibrary; the structure of its complex with PaMprF was deposited as PDB 9GOE; Selected by one round of ribosome display and two rounds of phage display against biotinylated full-length PaMprF; also called Sb29
[1]
  binding result: binds
[2]
  binding result: binds
